Results on one protein are retold here after paper PMC10655190, “Targeted Mutation of a Non-catalytic Gating Residue Increases the Rate of Pseudomonas aeruginosaD-Arginine Dehydrogenase Catalytic Turnover” (Journal of Agricultural and Food Chemistry, 2023).

Substrate in series [1]: N=C(N)NCCC[C@@H](N)C(=O)O
The series is described as follows: purified protein. Conditions: 1 mM PMS, 20 mM sodium pyrophosphate, pH 10.0, 25 °C.

Substrate in series [2]: CC(C)C[C@@H](N)C(=O)O
The series is described as follows: purified protein. To be noted: 1 mM PMS, 20 mM sodium pyrophosphate, pH 10.0, 25 °C.

B1: Pseudomonas aeruginosa D-arginine dehydrogenase (PaDADH) (Pseudomonas aeruginosa PAO1) (protein)
chain: MIEADYLVIGAGIAGASTGYWLSAHGRVVVLEREAQPGYHSTGRSAAHYTVAYGTPQVRALTAASRAFFDNPPAGFCEHPLLSPRPEMVVDFSDDPEELRRQYESGKALVPQMRLLDAEQACSIVPVLRRDKVFGATYDPTGADIDTDALHQGYLRGIRRNQGQVLCNHEALEIRRVDGAWEVRCDAGSYRAAVLVNAAGAWCDAIAGLAGVRPLGLQPKRRSAFIFAPPPGIDCHDWPMLVSLDESFYLKPDAGMLLGSPANADPVEAHDVQPEQLDIATGMYLIEEATTLTIRRPEHTWAGLRSFVADGDLVAGYAANAEGFFWVAAQGGYGIQTSAAMGEASAALIRHQPLPAHLREHGLDEAMLSPRRLSP
In the case of B1, the Km – broadly, the concentration of substrate that gives half-maximal velocity – in “purified protein [1]” was found to be 0.033 ± 0.002 mM. In the series “purified protein [2]”, the Km was determined as 6.6 ± 0.5 mM; the kcat (usually the maximal rate divided by the concentration of active sites) is 73 ± 3 s⁻¹; the specificity constant (kcat/Km) (as a rule, the turnover number divided by the Michaelis constant) worked out at 11000 ± 880 M⁻¹ s⁻¹.
